Test results: patent US20240052052A1 (ANTENGENE BIOLOGICS, published 2024)
Where a chain is given by its changes, count along the chain named. Values belong to the binder of their own block, whether it stands above or below them.

Tests used:
human CD24 [1] = biological target: T1, human CD24 (human, UniProt P25063 27-59, heavily glycosylated, GPI-anchored (as described in the background)); assay: FACS, 5637 cells
T1 construct: whole, on cells; Target of all cell-based FACS assays; also called hCD24; Cluster of differentiation 24
T1 chain (looked up): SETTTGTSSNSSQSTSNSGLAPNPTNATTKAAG
Experimental: (§1) Sequences of some of antibodies from Table 1 were selected to generate and produce human IgG4 chimeric antibodies. […] The protocol for FACs analysis is described as follows: [0536] a. Digested cells using TrypLE™ Express Enzyme (IX); Centrifuged the harvested cells at 400 g for 5 min and discarding the supernatant. [0537] b. Washed the cells 2 times with cold FACS buffer by centrifuging at 400 g for 5 min and discarding the supernatant. [0538] c. […] Incubate at […] for 1 h. [0539] d. Washed the cells twice by using the condition in step b. Resuspended the cells with 100 μl/well diluted 2nd antibody, incubated at 4 degree for 1 h in the dark. [0540] e. Washed the cells twice by using the condition in step b. Resuspended the cells with 100 μl/well cold FACS buffer. Kept the cells in dark for FACS analysis.

human CD24 [2] = biological target: T1, human CD24; assay: FACS, MCF7 cells
Experimental: as §1

human CD24 [3] = biological target: T1, human CD24; assay: FACS, Nalm1 cells
Experimental: as §1

human CD24 [4] = biological target: T1, human CD24; assay: FACS, 293F-hCD24 cells
Experimental: as §1

human CD24 [5] = biological target: T1, human CD24; assay: FACS, MDA-MB-468 cells
Experimental: as §1

human CD24 [6] = biological target: T1, human CD24; assay: cell-based or functional assay
human CD24 [7] = biological target: T1, human CD24; assay: FACS, CHOK1-hCD24 cells
Experimental: as §1

human CD24 [8] = biological target: T1, human CD24; assay: FACS, 5637 cells
Experimental: (§2) Screening & Expansion: The subcloning plates were screened by Acumen assay and the subclones with good binding ability were expanded to 24-wells for confirmation tests. The specificity and cross-reactivity of these subclones were confirmed with FACs analysis. […] Fluorescent dye-conjugated secondary antibody was used to detect the binding of the primary antibody with the cells. Median fluorescence intensity (MFI) was measured by FACs analysis.

human CD24 [9] = biological target: T1, human CD24; assay: FACS, MCF7 cells
Experimental: as §2

human CD24 [10] = biological target: T1, human CD24; assay: FACS, A549 cells
Experimental: as §1

human CD24 [11] = biological target: T1, human CD24; assay: FACS, Nalm1 cells
Experimental: as §2

human CD24 [12] = biological target: T1, human CD24; assay: FACS, H1975 cells
Experimental: as §2

human CD24 [13] = biological target: T1, human CD24; assay: FACS, H1975 cells
Experimental: as §1

human CD24 [14] = biological target: T1, human CD24; assay: FACS, HT-29 cells
Experimental: as §1

human CD24 [15] = biological target: T1, human CD24; assay: FACS, 293F-hCD24 cells
Experimental: as §2

- EC50 (nM), phagocytosis against HT-29 cells (human CD24 [6]): 0.157 nM
- Max phagocytosis Index (%), phagocytosis against HT-29 cells (human CD24 [6]): 78.4%
B4: ch81A7A10-hIgG4 (antibody, V domains shown)
VH: QVQLKESGPGLVAPLQSLSITCTVSGFSLSSYGVSWVRQLPGKGLEWLGVIWGDGSTDYHSTLTSRLSFSKDNSESQVFLKLNSLQTDDTATYYCAIFYGYDEGFAYWGQGTLVTVSA
VL: ENVLTQSPAIMSAFLGEKVTMSCRASSTVNYMYWYQQKSDASPKVWIYYTSRLAPGVPARFSGSGSGNSFSLTISSMEGEDAATYYCQQFTSSPLTFGAGTKLELR

- EC50 (human CD24 [1]): 6.44 nM
- Max MFI (human CD24 [1]): 42900
- EC50 (human CD24 [2]): 4.35 nM
- Max MFI (human CD24 [2]): 20600
- EC50 (human CD24 [3]): 5.8 nM
- Max MFI (human CD24 [3]): 109000
- EC50 (human CD24 [4]): 3.55 nM
- Max MFI (human CD24 [4]): 80900
- EC50 (human CD24 [5]): 9.07 nM
- Max MFI (human CD24 [5]): 56700
- EC50 (nM), phagocytosis against HT-29 cells (human CD24 [6]): 0.042 nM
- Max phagocytosis Index (%), phagocytosis against HT-29 cells (human CD24 [6]): 80.4%
- EC50 (human CD24 [7]): 2.27 nM
- Max MFI (human CD24 [7]): 62100
B5: ch33E7E12-hIgG1 (antibody, V domains shown)
VH: EVKLEESGGGLVQPGGSMKLSCFVSGFTFSNSWMNWVRQSPEKGLEWVAQIQLKSDNYATRYVESVRGRFIISRDDSKSSVSLQMNNLRTEDTGIYYCSSGTDYWGQGTTLTVSS
VL: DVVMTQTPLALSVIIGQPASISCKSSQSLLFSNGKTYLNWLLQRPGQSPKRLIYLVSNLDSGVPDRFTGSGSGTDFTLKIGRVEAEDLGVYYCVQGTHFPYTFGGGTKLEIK
notes: chimeric

- EC50 (human CD24 [1]): 2.47 nM
- Max MFI (human CD24 [1]): 54100
- EC50 (human CD24 [2]): 2.31 nM
- Max MFI (human CD24 [2]): 25400
- EC50 (human CD24 [3]): 1.31 nM
- Max MFI (human CD24 [3]): 101000
- EC50 (human CD24 [4]): 3.35 nM
- Max MFI (human CD24 [4]): 117000
- EC50 (human CD24 [5]): 5.75 nM
- Max MFI (human CD24 [5]): 90800
- EC50 (nM), phagocytosis against HT-29 cells (human CD24 [6]): 0.098 nM
- Max phagocytosis Index (%), phagocytosis against HT-29 cells (human CD24 [6]): 76.6%
- EC50 (human CD24 [7]): 3240 nM
- Max MFI (human CD24 [7]): 85300
B8: ch81A1F8-hIgG4 (antibody, V domains shown)
VH: EVQLQQSGPELVKPGASVKISCKATGYLFTGYYMNWVKQSPEKSLEWIGEINPNTGDTNNNQKFKAKATMTVDRSSSTAYMQLKRLTSEDSAVYYCVRRDYGTSLDYWGQGTTLTVSS
VL: DVQITQSPSYLAASPGETITINCRASKSINKYLAWYQEKPGKTNKLLIHSGSTLQSGIPSRFSGSRSGTDFTLTISNLEPEDFAMYYCQQHNEYPITFGAGTKLELK
notes: chimeric; also called chAb81A1F8; ch81A1F8-IgG4

The remaining lines, values behind:

B1: ch100F2E3-hIgG4 (antibody, V domains shown)
VH: QVQLQQPGAELVRPGSSVKLSCKTSDYTFTSYWMDWVKQRPGQGLEWIGNIYPSDSKTHSNQKFRDKATLTVDKSSSTAYMQLNSLTSEDSAVYYCARRGGYYGYAMDYWGQGTSVTVSS
VL: DIVMTQSPSSLSVSAGEKVTMSCKSSQSLLNSGNQDNYLAWYQQKPGQPPKLLIYGASIRESGVPDRFTGSGSGTDFTLTISSVQAEDLAVYYCQNDHSYPYTFGGGTKLEIK
notes: chimeric
- EC50 (human CD24 [1]): 3.42 nM
- Max MFI (human CD24 [1]): 20200
- EC50 (human CD24 [2]): 6.85 nM
- Max MFI (human CD24 [2]): 7960
- EC50 (human CD24 [3]): 2.78 nM
- Max MFI (human CD24 [3]): 77700
- EC50 (human CD24 [4]): 3.73 nM
- Max MFI (human CD24 [4]): 60400
- EC50 (human CD24 [5]): 7.39 nM
- Max MFI (human CD24 [5]): 71900
- EC50 (nM), phagocytosis against HT-29 cells (human CD24 [6]): 1.9 nM
- Max phagocytosis Index (%), phagocytosis against HT-29 cells (human CD24 [6]): 71.2%
- EC50 (human CD24 [7]): > 100 nM
- Max MFI (human CD24 [7]): 59300

B2: 100F2E3 (antibody, V domains shown)
VH: B1 VH
VL: B1 VL
notes: mouse monoclonal antibody
- FACS MFI (human CD24 [8]): 22100
- FACS MFI (human CD24 [9]): 7160
- EC50 (human CD24 [1]): 9.47 nM
- EC50 (human CD24 [2]): 8.08 nM
- EC50 (human CD24 [10]): 6.58 nM
- Max MFI (human CD24 [10]): 8670
- FACS MFI (human CD24 [11]): 58800
- FACS MFI (human CD24 [12]): 6900
- EC50 (human CD24 [3]): 8.88 nM
- Max MFI (human CD24 [3]): 58800
- EC50 (human CD24 [13]): 10 nM
- EC50 (human CD24 [14]): 9.55 nM
- Max MFI (human CD24 [14]): 2420
- FACS MFI (human CD24 [15]): 44100
- EC50 (human CD24 [4]): 11.4 nM
- Max MFI (human CD24 [4]): 44100
- EC50 (human CD24 [5]): 19.6 nM
- FACS MFI (human CD24 [5]): 44000
- EC50 (human CD24 [7]): 1.71 nM
- Max MFI (human CD24 [7]): 22300

B3: ch56A7E3-hIgG4 (antibody, V domains shown)
VH: EVQLQQSGPELVKPGASVKIPCKASGYTFTAYNMDWVKQSHGMSLEWIGDINPINGGTIYNQNFEGKATLTVDKSSSTAYLELRSLTSEDTAVYYCARRGSYYYGSSHYALDFWGQGTSVSVSS
VL: DIQMTQITSSLSASLGDRVTITCRASQDISNYLNWYQQKPDGTVKLLIYYTSRLLSGVPSRFSGSGSGTDYSLTISNLEQEDIATYFCQQDHTLPRTFGGGTKLEIR
notes: chimeric
- EC50 (human CD24 [1]): 139 nM
- Max MFI (human CD24 [1]): 61100
- EC50 (human CD24 [2]): 83.7 nM
- Max MFI (human CD24 [2]): 22800
- EC50 (human CD24 [3]): 66.4 nM
- Max MFI (human CD24 [3]): 80300
- EC50 (human CD24 [4]): 3.7 nM
- Max MFI (human CD24 [4]): 57100
- EC50 (human CD24 [5]): 18.7 nM
- Max MFI (human CD24 [5]): 54200
- EC50 (nM), phagocytosis against HT-29 cells (human CD24 [6]): 4.74 nM
- Max phagocytosis Index (%), phagocytosis against HT-29 cells (human CD24 [6]): 55.2%
- EC50 (human CD24 [7]): 3.04 nM
- Max MFI (human CD24 [7]): 54100

B6: 33E7E12 (antibody, V domains shown)
VH: B5 VH
VL: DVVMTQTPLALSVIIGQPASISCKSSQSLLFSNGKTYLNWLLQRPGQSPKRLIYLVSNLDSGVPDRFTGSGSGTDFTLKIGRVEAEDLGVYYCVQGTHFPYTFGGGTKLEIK
notes: mouse monoclonal antibody
- FACS MFI (human CD24 [8]): 14100
- FACS MFI (human CD24 [9]): 5410
- EC50 (human CD24 [1]): 4.37 nM
- EC50 (human CD24 [2]): 2.38 nM
- FACS MFI (human CD24 [11]): 45500
- FACS MFI (human CD24 [12]): 6110
- EC50 (human CD24 [3]): 6.2 nM
- Max MFI (human CD24 [3]): 45500
- EC50 (human CD24 [13]): 8.15 nM
- EC50 (human CD24 [14]): 3.4 nM
- Max MFI (human CD24 [14]): 2450
- FACS MFI (human CD24 [15]): 24200
- EC50 (human CD24 [4]): 2.4 nM
- Max MFI (human CD24 [4]): 24200
- EC50 (human CD24 [5]): 3.45 nM
- FACS MFI (human CD24 [5]): 10900
- EC50 (human CD24 [7]): 1.86 nM
- Max MFI (human CD24 [7]): 24100

B7: ch33E7E12-hIgG4 (antibody, V domains shown)
VH: B5 VH
VL: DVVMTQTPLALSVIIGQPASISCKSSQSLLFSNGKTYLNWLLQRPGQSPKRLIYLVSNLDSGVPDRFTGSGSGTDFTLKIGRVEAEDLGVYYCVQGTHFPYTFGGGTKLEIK
notes: chimeric
- EC50 (human CD24 [1]): 7.27 nM
- Max MFI (human CD24 [1]): 25600
- EC50 (human CD24 [2]): 4.75 nM
- Max MFI (human CD24 [2]): 16100
- EC50 (human CD24 [3]): 11.8 nM
- Max MFI (human CD24 [3]): 34400
- EC50 (human CD24 [4]): 4.56 nM
- Max MFI (human CD24 [4]): 55200
- EC50 (human CD24 [5]): 6.8 nM
- Max MFI (human CD24 [5]): 20100
- EC50 (nM), phagocytosis against HT-29 cells (human CD24 [6]): 3.25 nM
- Max phagocytosis Index (%), phagocytosis against HT-29 cells (human CD24 [6]): 33.3%
- EC50 (human CD24 [7]): 2.66 nM
- Max MFI (human CD24 [7]): 56600

B9: ch110D4G4-hIgG4 (antibody, V domains shown)
VH: EVQLQQSGPGLVKPGASVKISCRASGYLFTGYYMNWVKQSPEKSLEWIGEINPNTGDPRYDQKFKAKATLTVDRSSSTAYMHLKSLTSEDSAVYFCARRDYGTSLDYWGQGTTLTVTS
VL: B8 VL with N30S, H49Y, R66G, T69S, N77S, I96L
notes: chimeric; also called chAb110D4G4
- EC50 (human CD24 [1]): 2.18 nM
- Max MFI (human CD24 [1]): 49900
- EC50 (human CD24 [2]): 2.01 nM
- Max MFI (human CD24 [2]): 22700
- EC50 (human CD24 [3]): 1.95 nM
- Max MFI (human CD24 [3]): 111000
- EC50 (human CD24 [4]): 2.82 nM
- Max MFI (human CD24 [4]): 112000
- EC50 (human CD24 [5]): 5.44 nM
- Max MFI (human CD24 [5]): 89700
- EC50 (human CD24 [7]): 35.4 nM
- Max MFI (human CD24 [7]): 99500
